8 molecules from patent US20220259306A1 (SHANGHAI HYAMAB BIOTECH, published 2022) can be followed below.

Experiment [1] has as its target T1, human NKG2A/CD94 on the cell surface (CHOk1-hNKG2A/CD94 stable cell line) (human, UniProt P26715 1-233; Q13241 1-179).
T1 construct: whole, on cells; 93 and 94 are nucleic acids; also called human NKG2A on the cell surface; NKG2A/CD94 cells
As to the kind of experiment: FACS on CHOK1-hNKG2A/CD94 cells, Alexa 488 secondary antibody.

Experiment [2] deals with T2, monkey NKG2A/CD94 on the cell surface (CHOk1-cNKG2A/CD94 stable cell line) (macaque, UniProt Q9MZJ3 1-233; Q9MZK9 1-179).
T2 construct: also called macaque NKG2A; cyno NKG2A
As to the kind of experiment: FACS on CHOK1-cNKG2A/CD94 cells, Alexa 488 secondary antibody. From the text: The pCHO1.0 plasmid containing the nucleotide sequence encoding the full-length amino acid sequence of human-derived NKG2A/CD94 as described in step (2) of Example 1 was transfected into the CHOK1 cell line to obtain a CHOK1 stable cell line containing human NKG2A and CD94 (here referred to as CHOk1-hNKG2A/CD94 stable cell line), the pCHO1.0 plasmid carrying the monkey-derived NKG2A and CD94 full-length genes (the preparation method is the same as the preparation method of pCpC vector with human IgG Fc fragment (hFc) in step (1) “Preparation of immunogen A” in Example 1. The CHOK1 cell line was transfected to obtain the CHOK1 stable cell line containing monkey NKG2A/CD94 (here referred to as the CHOk1-cNKG2A/CD94 stable cell line), the CHOK1-hNKG2C/CD94 stable cell line was prepared with the same method. CHOk1-hNKG2A/CD94 stable cell line, CHOk1-cNKG2A/CD94 stable cell line and CHOK1-hNKG2C/CD94 stable cell line were expanded to 90% confluence in T-75 cell culture flasks, aspirating the medium, washed twice with PBS buffer (purchased from Invitrogen), then treating and collecting the cells with an enzyme-free cell dissociation solution (Versene solution, purchased from Life technology). Washing the cells twice with PBS buffer, after counting the cells, diluting the cells with PBS buffer to 2×10⁶ cells per milliliter, adding 1% goat serum blocking solution, the percentage was the mass percentage, incubated on ice for 30 minutes, and then washed twice with PBS buffer by centrifugation. Suspending the collected cells with FACS buffer (PBS+1%BSA, the percentage was the mass percentage) to 2×10⁶ cells/mL, adding it to 96-wells FACS reaction plate at 100 microliters per well, and adding 100 microliters per well of the purified NKG2A antibody test sample obtained in Example 2, incubated on ice for 2 hours. Washed twice with FACS buffer by centrifugation, and adding 100 microliters of fluorescent (Alexa 488) labeled secondary antibody (purchased from Invitrogen) per well, incubated on ice for 1 hour. Washed 3 times by centrifugation with FACS buffer, then suspending the cells with 100 μl FACS buffer, and using FACS (FACS Calibur, purchased from BD) to detect and analyze the results.

The target of experiment [3] is T3, hFc-tagged NKG2A/CD94 protein (NKG2A/CD94-hFc), immunogen A (human, UniProt P26715 94-233; Q13241 32-179, biotin-labeled in the Octet assays (site not stated)).
T3 construct: Heterodimer of the extracellular domains of NKG2A and CD94, each with hFc; also called human-derived NKG2A/CD94-ECD-Fc; hNKG2A/CD94-ECD-Fc; not shown: human IgG Fc fragment (hFc) of the pCpC vector
The experiment can be described thus: BLI (Octet red96), biotinylated immunogen A on streptavidin sensor, antibody in solution. From the text: (§1) An Octet red96 instrument (purchased from Fortiebio) was used to determine the affinity constant. The specific operations and methods are based on the instrument manual and the detailed methods provided by the manufacturer. Specifically: using a streptavidin sensor (SA sensor, purchased from Fortiebio) for affinity determination.
For orientation: BLI is a label-free optical method that tracks binding on a fibre tip over time.

The target in experiment [4] is T3, hFc-tagged NKG2A/CD94 protein …. The experiment can be described thus: BLI (Octet), biotinylated HNKG2A/CD94-ECD-Fc on streptavidin sensor, method of Example 5B.
From the text: as §1

The target in experiment [5] is T1, human NKG2A/CD94 on the cell surface …. As to the kind of experiment: FACS blocking assay: HLA-E binding to NKG2A/CD94 cells in the presence of the antibody.
The target is the same in experiment [6]. The experiment can be described thus: FACS blocking assay: HLA-E-PE binding to CHOk1-hNKG2A/CD94 cells in the presence of the antibody.
For the next experiment, the target named is T4, NKG2E protein (human, UniProt Q07444 94-240, limits assumed).
T4 construct: construct and source not described
As to the kind of experiment: ELISA on NKG2E protein. (An ELISA detects its analyte on a solid surface through an enzyme-linked reagent.)

Experiment [7] addresses T2, monkey NKG2A/CD94 on the cell surface …. As to the kind of experiment: FACS on CHOK1-cNKG2A/CD94 cells.
Experiment [8] has the same target. The experiment can be described thus: FACS on CHOK1-cNKG2A/CD94 cells. This is another data set of the same source.
The target in experiment [9] is T3, hFc-tagged NKG2A/CD94 protein …. As to the kind of experiment: ELISA of scFv supernatant, selection threshold.
The target in experiment [10] is T2, monkey NKG2A/CD94 on the cell surface …. As to the kind of experiment: FACS of scFv on cells with macaque NKG2A (cell line not given).

The term EC50 (read off the curve) denotes the concentration at which the effect is half-maximal. In general, Kd refers to the constant that tells how readily two partners part at equilibrium. As usually defined, the koff is the rate constant with which the complex falls apart. As a reminder, the kon is the second-order rate constant of association.

Where a chain is given by its changes, count along the chain named.

T4 sequence (Q07444 94-240 limits assumed): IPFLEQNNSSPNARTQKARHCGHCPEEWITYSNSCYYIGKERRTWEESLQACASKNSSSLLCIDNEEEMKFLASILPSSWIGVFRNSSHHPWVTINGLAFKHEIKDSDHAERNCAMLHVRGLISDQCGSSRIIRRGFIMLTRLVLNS
T3 sequence (P26715 94-233 limits assumed, chain 1 of 2): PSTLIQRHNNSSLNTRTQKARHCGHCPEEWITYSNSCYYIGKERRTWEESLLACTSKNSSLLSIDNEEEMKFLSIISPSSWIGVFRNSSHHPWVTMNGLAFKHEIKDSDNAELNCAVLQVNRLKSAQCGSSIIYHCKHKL
T3 sequence (Q13241 32-179 limits assumed, chain 2 of 2): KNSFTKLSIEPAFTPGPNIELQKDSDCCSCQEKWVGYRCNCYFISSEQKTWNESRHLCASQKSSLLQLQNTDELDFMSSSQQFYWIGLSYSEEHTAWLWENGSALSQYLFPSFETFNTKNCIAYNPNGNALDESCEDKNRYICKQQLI
T2 sequence (Q9MZJ3 other isoform, or with tags, fused parts or gaps, chain 1 of 2): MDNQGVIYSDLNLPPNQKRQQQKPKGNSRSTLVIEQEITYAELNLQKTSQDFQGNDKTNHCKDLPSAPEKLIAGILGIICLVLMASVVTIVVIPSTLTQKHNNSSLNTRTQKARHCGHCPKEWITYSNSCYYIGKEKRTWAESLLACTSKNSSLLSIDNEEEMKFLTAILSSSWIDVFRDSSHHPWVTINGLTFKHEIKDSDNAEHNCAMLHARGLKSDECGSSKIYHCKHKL
T2 sequence (Q9MZK9 whole entry, chain 2 of 2): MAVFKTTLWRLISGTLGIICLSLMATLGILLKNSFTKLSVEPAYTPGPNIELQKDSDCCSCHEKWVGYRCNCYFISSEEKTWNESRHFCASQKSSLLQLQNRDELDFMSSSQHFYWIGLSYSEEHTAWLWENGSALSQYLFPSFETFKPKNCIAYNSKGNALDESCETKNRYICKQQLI

B1: Tab1 (Z270) (antibody, V domains shown)
VH: EVQLVESGGGLVKPGGSLRLSCAASGFTFSSHSMNWVRQAPGKGLEWVSAISSSSSYIYYADSVKGRFTISRDNAKNSLYLQMNSLRAEDTAVYYCAREEWGLPFDYWGQGTLVTVSS
VL: AIQLTQSPSSLSASVGDRVTITCRASQGISSALAWYQQKPGKAPKLLIYDASSLKSGVPSRFSGSGSGTDFTLTISSLQPEDFATYYCQQFNSYPLTFGQGTRLEIK
Take B1: the “EC50 (read off the curve)” value was roughly 0.4 nM in experiment [1] and roughly 2 nM in experiment [2]. The Kd in experiment [3] worked out at 0.142 nM; in [4], 0.182 nM. For the same molecule, the koff in [3] was 0.000189 s⁻¹; in experiment [4] it was 0.00162 s⁻¹. In addition, the values for the kon in experiment [3] and in [4] were 1.33e+06 M⁻¹ s⁻¹ and 8.87e+06 M⁻¹ s⁻¹, respectively. Besides, the entries for the “IC50 (read off the curve)” value in experiment [5] and in [6] were roughly 1 nM and roughly 0.7 nM, respectively.

B2: Mab031 (antibody, V domains shown)
VH: EVQLQQSVAELVRPGASVRLSCTGSGFNIQNTYIHWVKQRPEQGLEWIGRIDPANGDTKYAPKFQGKATITADTSSNTAYLQLSSLTSEDTAIYYCTRYGNYLYYYSLDYWGQGTSVTVSS
VL: DIVMTQAAPSVPVTPGESVSISCRSSKSLLHSNGNTYLYWFLQRPGQSPQLLIYRMSNLASGVPDRFSGSGSGTAFTLRISRVEAEDMGVYYCMQHLEYPYTFGGGTKLEIK
Regarding B2, the binding result with NKG2E protein is “no binding (tested: 66.67 nM)”. In [2], the concentration for a half-maximal effect (EC50 (read off the curve)) was roughly 1 nM. In experiment [3], this molecule displayed a Kd of 0.0181 nM, a koff of 1.84e-05 s⁻¹ and a kon of 1.02e+06 M⁻¹ s⁻¹.

B3: Mpb416 (antibody, V domains shown)
VH: QVQLQQSVAELVRPGASVKLSCTASGFNIQNTYIHWVKQRPEQGLEWIGKIDPANGDTKYAPTFQGKATITADTSSNTAYLQLSSLTPEDTAIYYCARYRDYLFYYALGYWGQGTSVTVSS
VL: B2 VL with A7S, M88V
notes: also called 12G8 (as full antibody)
With B3, the binding result with NKG2E protein is listed as “no binding (tested: 66.67 nM)”. Further, the 50% effective concentration (EC50 (read off the curve)) in experiment [2] is roughly 0.7 nM. In experiment [3], the Kd turned out to be 0.0104 nM, the koff worked out at 1.04e-05 s⁻¹ and the kon was found to be 995000 M⁻¹ s⁻¹.

B4: Mab033 (antibody, V domains shown)
VH: EVQLQQSVAEFVRPGASVRLSCTASGFNIENTYIHWLKQRPEQGLEWIGRIDPANGDTQYDPKFQGKATLTAATSSNTAYLQLSGLTSEDTAIYYCTRYGDYLFYYSLKYWGQGTSVTVSS
VL: B2 VL with P12S, M88V, Y99S
In the case of B4, the binding result with NKG2E protein is “no binding (tested: 66.67 nM)”. In addition, the “EC50 (read off the curve)” value in experiment [2] was roughly 1 nM. Moreover, in experiment [3], the Kd was found to be 0.0202 nM, the koff turned out to be 2.26e-05 s⁻¹ and the kon amounted to 1.12e+06 M⁻¹ s⁻¹.

B5: M15 (antibody, V domains shown)
VH: B3 VH with G56A
VL: B2 VL with A7S, G34A, M88V
notes: parent of the humanized M15-1 to M15-15; also called M15 antibody; Mpb416-M15
With B5, the “EC50 (read off the curve)” value in [7] and in experiment [8] was roughly 0.8 nM each time.

B6: Mab032 (antibody, V domains shown)
VH: B2 VH with Q30E, I34M, V37L, N55D, K59Q, A72T, T97A, Y104F, L108M
VL: B2 VL with G73A, M88V, V90I
As to B6, the binding result in the experiment with NKG2E protein is given as “no binding (tested: 66.67 nM)”. Also, the “EC50 (read off the curve)” value in experiment [2] was roughly 1 nM. In experiment [3], this molecule showed a Kd of 0.0239 nM, a koff of 2.45e-05 s⁻¹ and a kon of 1.03e+06 M⁻¹ s⁻¹.

B7: 2F10-2 (scFv clone) (scFv, V domains shown)
VH: QVQLQQSVAELVRPGASVKLSCTASGFNIKNAYVHWVKQRPEQGLEWIGQIDPANGNTKYAPKFQAKATITADTSSNTVYLQLSSLTSEDTAVYYCARSYLGGQYYFDYSGQGTTLTVSS
VL: DILMTQSPSSMYASLGERVTITCKASQDINSYLSWFQQKPGKSPKTLIYRANRLVDGVPSRFSGSGSGQDYSLTISSLEYEDMGIYYCLQYDEFPLTFGAGTKLEIK
notes: scFv
For B7, the “OD450 nm reading ratio NKG2A/CD94-ECD-Fc / NKG2C/CD94-ECD-Fc” value in experiment [9] worked out at 4. In addition, in [10], the binding result is reported as “binds”.

B8: M15-5 (antibody, V domains shown)
VH: QVQLVQSGAEVKKPGASVKVSCKASGFNIQNTYIHWVKQAPGQGLEWIGKIDPANADTKYAPTFQGRATITADTSTNTAYLELSSLRSEDTAVYYCARYRDYLFYYALGYWGQGTTVTVSS
VL: DIVMTQSPLSLPVTPGEPASISCRSSKSLLHSNANTYLYWYLQKPGQSPQLLIYRMSNLASGVPDRFSGSGSGTDFTLKISRVEAEDVGVYYCMQHLEYPYTFGQGTKLEIK
notes: Humanized; also called humanized NKG2A antibody
Take B8: the “EC50 (read off the curve)” value in [7] was roughly 1 nM. In experiment [4], this molecule displayed a Kd of less than 0.0104 nM, a koff of less than 1e-05 s⁻¹ and a kon of 958000 M⁻¹ s⁻¹.
